Tests used:
human PD-1 = molecular target: T1, human PD-1 (human, UniProt Q15116 25-167, limits assumed); test: Biacore and cell-based assays, calibrated by wildtype nivolumab binding affinity
T1 construct: nivolumab is called an anti-human PD-1 antibody; also called hPD-1

CD8 on CD8+ T cells = molecular target: T2, CD8 on CD8+ T cells (human, UniProt P01732 22-235); test: FACS on CD8+ T cells
T2 construct: whole, on cells

IL-23 receptor complex = IL-23 receptor complex (UniProt P42701 24-662; Q5VWK5 24-629, limits assumed); test: cell-based or functional assay
Sequence of IL-23 receptor complex (Q5VWK5 24-629 limits assumed, chain 2 of 2, other chains not shown): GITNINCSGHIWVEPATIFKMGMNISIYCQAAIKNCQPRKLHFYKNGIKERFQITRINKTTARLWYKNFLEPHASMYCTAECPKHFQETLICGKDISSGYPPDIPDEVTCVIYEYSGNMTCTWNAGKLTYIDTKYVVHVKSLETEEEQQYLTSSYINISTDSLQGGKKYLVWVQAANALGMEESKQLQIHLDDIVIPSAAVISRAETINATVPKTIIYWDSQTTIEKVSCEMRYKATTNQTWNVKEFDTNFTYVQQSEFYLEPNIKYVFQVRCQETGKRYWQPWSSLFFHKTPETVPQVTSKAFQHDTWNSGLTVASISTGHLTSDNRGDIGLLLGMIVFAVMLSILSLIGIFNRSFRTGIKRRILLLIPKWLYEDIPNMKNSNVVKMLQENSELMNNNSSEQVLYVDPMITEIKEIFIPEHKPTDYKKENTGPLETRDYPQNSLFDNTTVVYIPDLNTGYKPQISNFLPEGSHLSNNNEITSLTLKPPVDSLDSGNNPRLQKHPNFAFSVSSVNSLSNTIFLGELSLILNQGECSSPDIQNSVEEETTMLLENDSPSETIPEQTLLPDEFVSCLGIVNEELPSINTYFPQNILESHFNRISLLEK

T1 sequence (Q15116 25-167 limits assumed): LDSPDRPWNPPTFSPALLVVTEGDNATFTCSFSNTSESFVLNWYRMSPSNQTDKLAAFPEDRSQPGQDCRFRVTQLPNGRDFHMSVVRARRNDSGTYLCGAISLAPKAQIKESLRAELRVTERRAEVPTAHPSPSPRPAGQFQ
T2 sequence (P01732 22-235): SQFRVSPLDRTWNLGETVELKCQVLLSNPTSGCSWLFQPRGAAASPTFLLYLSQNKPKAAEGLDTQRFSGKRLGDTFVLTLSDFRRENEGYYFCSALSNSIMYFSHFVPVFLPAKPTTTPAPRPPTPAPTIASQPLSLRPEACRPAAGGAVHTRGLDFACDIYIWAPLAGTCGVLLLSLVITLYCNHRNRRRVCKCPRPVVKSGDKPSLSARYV

Row | Binder | Kd (human PD-1) [nM] | binding result (CD8 on CD8+ T cells) | IFN-γ release, % of rIL-23, activated CD8+ T cells (IL-23 receptor complex) [%]
1 | anti-PD-1 antibody HC-CDR3(D100G) (antibody, IgG1, V domains shown, heterodimeric IgG1 as the WT antibody) VH: QVQLVESGGGVVQPGRSLRLDCKASGITFSNSGMHWVRQAPGKGLEWVAVIWYDGSKRYYADSVKGRFTISRDNSKNTLFLQMNSLRAEDTAVYYCATNGDYWGQGTLVTVSS VL: EIVLTQSPATLSLSPGERATLSCRASQSVSSYLAWYQQKPGQAPRLLIYDASNRATGIPARFSGSGSGTDFTLTISSLEPEDFAVYYCQQSSNWPRTFGQGTKVEIKR | 130 |  | 
2 | anti-PD-1 antibody HC-CDR3(D100R) (antibody, IgG1, V domains shown, heterodimeric IgG1 as the WT antibody) VH: QVQLVESGGGVVQPGRSLRLDCKASGITFSNSGMHWVRQAPGKGLEWVAVIWYDGSKRYYADSVKGRFTISRDNSKNTLFLQMNSLRAEDTAVYYCATNRDYWGQGTLVTVSS VL: EIVLTQSPATLSLSPGERATLSCRASQSVSSYLAWYQQKPGQAPRLLIYDASNRATGIPARFSGSGSGTDFTLTISSLEPEDFAVYYCQQSSNWPRTFGQGTKVEIKR | 910 |  | 
3 | anti-PD-1 antibody HC-CDR3(D100N) (antibody, IgG1, V domains shown, heterodimeric IgG1 as the WT antibody) VH: QVQLVESGGGVVQPGRSLRLDCKASGITFSNSGMHWVRQAPGKGLEWVAVIWYDGSKRYYADSVKGRFTISRDNSKNTLFLQMNSLRAEDTAVYYCATNNDYWGQGTLVTVSS VL: EIVLTQSPATLSLSPGERATLSCRASQSVSSYLAWYQQKPGQAPRLLIYDASNRATGIPARFSGSGSGTDFTLTISSLEPEDFAVYYCQQSSNWPRTFGQGTKVEIKR | 25 |  | 
4 | anti-PD-1 antibody HC-CDR3(N99G) (antibody, IgG1, V domains shown, heterodimeric IgG1 as the WT antibody) VH: QVQLVESGGGVVQPGRSLRLDCKASGITFSNSGMHWVRQAPGKGLEWVAVIWYDGSKRYYADSVKGRFTISRDNSKNTLFLQMNSLRAEDTAVYYCATGDDYWGQGTLVTVSS VL: EIVLTQSPATLSLSPGERATLSCRASQSVSSYLAWYQQKPGQAPRLLIYDASNRATGIPARFSGSGSGTDFTLTISSLEPEDFAVYYCQQSSNWPRTFGQGTKVEIKR | 2300 |  | 
5 | Fab-IL-23(WT)-Fc-CD4 Ab (other) heavy 1: QVQLQQSGPEVVKPGASVKMSCKASGYTFTSYVIHWVRQKPGQGLDWIGYINPYNDGTDYDEKFKGKATLTSDTSTSTAYMELSSLRSEDTAVYYCAREKDNYATGAWFAYWGQGTLVTVSSASTKGPSVFPLAPSSKSTSGGTAALGCLVKDYFPEPVTVSWNSGALTSGVHTFPAVLQSSGLYSLSSVVTVPSSSLGTQTYICNVNHKPSNTKVDKKVEPKSCDKPGSGIWELKKDVYVVELDWYPDAPGEMVVLTCDTPEEDGITWTLDQSSEVLGSGKTLTIQVKEFGDAGQYTCHKGGEVLSHSLLLLHKKEDGIWSTDILKDQKEPKNKTFLRCEAKNYSGRFTCWWLTTISTDLTFSVKSSRGSSDPQGVTCGAATLSAERVRGDNKEYEYSVECQEDSACPAAEESLPIEVMVDAVHKLKYENYTSSFFIRDIIKPDPPKNLQLKPLKNSRQVEVSWEYPDTWSTPHSYFSLTFCVQVQGKSKREKKDRVFTDKTSATVICRKNASISVRAQDRYYSSSWSEWASVPCSGGGGSGGGGSGGGGSGGGGSGRAVPGGSSPAWTQCQQLSQKLCTLAWSAHPLVGHMDLREEGDEETTNDVPHIQCGDGCDPQGLRDNSQFCLQRIHQGLIFYEKLLGSDIFTGEPSLLPDSPVGQLHASLLGLSQLLQPEGHHWETQQIPSLSPSQPWQRLLLRFKILRSLQAFVAVAARVFAHGAATLSPDKTHTCPPCPAPEDEGGPSVFLFPPKPKDTLMISRTPEVTCVVVDVSHEDPEVKFNWYVDGVEVHNAKTKPREEQYNSTYRVVSVLTVLHQDWLNGKEYKCKVSNKALPAPIEKTISKAKGQPREPQVYVYPPSREEMTKNQVSLTCLVKGFYPSDIAVEWESNGQPENNYKTTPPVLDEDGSFALVSKLTVDKSRWQQGNVFSCSVMHEALHNHYTQKSLSLSPGK heavy 2: QVQLQQSGPEVVKPGASVKMSCKASGYTFTSYVIHWVRQKPGQGLDWIGYINPYNDGTDYDEKFKGKATLTSDTSTSTAYMELSSLRSEDTAVYYCAREKDNYATGAWFAYWGQGTLVTVSSASTKGPSVFPLAPSSKSTSGGTAALGCLVKDYFPEPVTVSWNSGALTSGVHTFPAVLQSSGLYSLSSVVTVPSSSLGTQTYICNVNHKPSNTKVDKKVEPKSCDKTHTCPPCPAPEKKGGPSVFLFPPKPKDTLMISRTPEVTCVVVDVSHEDPEVKFNWYVDGVEVHNAKTKPREEQYNSTYRVVSVLTVLHQDWLNGKEYKCKVSNKALPAPIEKTISKAKGQPREPQVYVLPPSREEMTKNQVSLLCLVKGFYPSDIAVEWESNGQPENRYMTWPPVLDSDGSFFLYSKLTVDKSRWQQGNVFSCSVMHEALHNHYTQKSLSLSPGK light: not shown |  | no binding | 21
6 | Fab-IL-23(F60A)-Fc-CD4 Ab (other) heavy 1: QVQLQQSGPEVVKPGASVKMSCKASGYTFTSYVIHWVRQKPGQGLDWIGYINPYNDGTDYDEKFKGKATLTSDTSTSTAYMELSSLRSEDTAVYYCAREKDNYATGAWFAYWGQGTLVTVSSASTKGPSVFPLAPSSKSTSGGTAALGCLVKDYFPEPVTVSWNSGALTSGVHTFPAVLQSSGLYSLSSVVTVPSSSLGTQTYICNVNHKPSNTKVDKKVEPKSCDKPGSGIWELKKDVYVVELDWYPDAPGEMVVLTCDTPEEDGITWTLDQSSEVLGSGKTLTIQVKEAGDAGQYTCHKGGEVLSHSLLLLHKKEDGIWSTDILKDQKEPKNKTFLRCEAKNYSGRFTCWWLTTISTDLTFSVKSSRGSSDPQGVTCGAATLSAERVRGDNKEYEYSVECQEDSACPAAEESLPIEVMVDAVHKLKYENYTSSFFIRDIIKPDPPKNLQLKPLKNSRQVEVSWEYPDTWSTPHSYFSLTFCVQVQGKSKREKKDRVFTDKTSATVICRKNASISVRAQDRYYSSSWSEWASVPCSGGGGSGGGGSGGGGSGGGGSGRAVPGGSSPAWTQCQQLSQKLCTLAWSAHPLVGHMDLREEGDEETTNDVPHIQCGDGCDPQGLRDNSQFCLQRIHQGLIFYEKLLGSDIFTGEPSLLPDSPVGQLHASLLGLSQLLQPEGHHWETQQIPSLSPSQPWQRLLLRFKILRSLQAFVAVAARVFAHGAATLSPDKTHTCPPCPAPEDEGGPSVFLFPPKPKDTLMISRTPEVTCVVVDVSHEDPEVKFNWYVDGVEVHNAKTKPREEQYNSTYRVVSVLTVLHQDWLNGKEYKCKVSNKALPAPIEKTISKAKGQPREPQVYVYPPSREEMTKNQVSLTCLVKGFYPSDIAVEWESNGQPENNYKTTPPVLDEDGSFALVSKLTVDKSRWQQGNVFSCSVMHEALHNHYTQKSLSLSPGK heavy 2: QVQLQQSGPEVVKPGASVKMSCKASGYTFTSYVIHWVRQKPGQGLDWIGYINPYNDGTDYDEKFKGKATLTSDTSTSTAYMELSSLRSEDTAVYYCAREKDNYATGAWFAYWGQGTLVTVSSASTKGPSVFPLAPSSKSTSGGTAALGCLVKDYFPEPVTVSWNSGALTSGVHTFPAVLQSSGLYSLSSVVTVPSSSLGTQTYICNVNHKPSNTKVDKKVEPKSCDKTHTCPPCPAPEKKGGPSVFLFPPKPKDTLMISRTPEVTCVVVDVSHEDPEVKFNWYVDGVEVHNAKTKPREEQYNSTYRVVSVLTVLHQDWLNGKEYKCKVSNKALPAPIEKTISKAKGQPREPQVYVLPPSREEMTKNQVSLLCLVKGFYPSDIAVEWESNGQPENRYMTWPPVLDSDGSFFLYSKLTVDKSRWQQGNVFSCSVMHEALHNHYTQKSLSLSPGK light: not shown |  |  | 1.5
7 | Fab-IL-23(E59A/F60A)-Fc-CD4 Ab (other) heavy 1: QVQLQQSGPEVVKPGASVKMSCKASGYTFTSYVIHWVRQKPGQGLDWIGYINPYNDGTDYDEKFKGKATLTSDTSTSTAYMELSSLRSEDTAVYYCAREKDNYATGAWFAYWGQGTLVTVSSASTKGPSVFPLAPSSKSTSGGTAALGCLVKDYFPEPVTVSWNSGALTSGVHTFPAVLQSSGLYSLSSVVTVPSSSLGTQTYICNVNHKPSNTKVDKKVEPKSCDKPGSGIWELKKDVYVVELDWYPDAPGEMVVLTCDTPEEDGITWTLDQSSEVLGSGKTLTIQVKAAGDAGQYTCHKGGEVLSHSLLLLHKKEDGIWSTDILKDQKEPKNKTFLRCEAKNYSGRFTCWWLTTISTDLTFSVKSSRGSSDPQGVTCGAATLSAERVRGDNKEYEYSVECQEDSACPAAEESLPIEVMVDAVHKLKYENYTSSFFIRDIIKPDPPKNLQLKPLKNSRQVEVSWEYPDTWSTPHSYFSLTFCVQVQGKSKREKKDRVFTDKTSATVICRKNASISVRAQDRYYSSSWSEWASVPCSGGGGSGGGGSGGGGSGGGGSGRAVPGGSSPAWTQCQQLSQKLCTLAWSAHPLVGHMDLREEGDEETTNDVPHIQCGDGCDPQGLRDNSQFCLQRIHQGLIFYEKLLGSDIFTGEPSLLPDSPVGQLHASLLGLSQLLQPEGHHWETQQIPSLSPSQPWQRLLLRFKILRSLQAFVAVAARVFAHGAATLSPDKTHTCPPCPAPEDEGGPSVFLFPPKPKDTLMISRTPEVTCVVVDVSHEDPEVKFNWYVDGVEVHNAKTKPREEQYNSTYRVVSVLTVLHQDWLNGKEYKCKVSNKALPAPIEKTISKAKGQPREPQVYVYPPSREEMTKNQVSLTCLVKGFYPSDIAVEWESNGQPENNYKTTPPVLDEDGSFALVSKLTVDKSRWQQGNVFSCSVMHEALHNHYTQKSLSLSPGK heavy 2: QVQLQQSGPEVVKPGASVKMSCKASGYTFTSYVIHWVRQKPGQGLDWIGYINPYNDGTDYDEKFKGKATLTSDTSTSTAYMELSSLRSEDTAVYYCAREKDNYATGAWFAYWGQGTLVTVSSASTKGPSVFPLAPSSKSTSGGTAALGCLVKDYFPEPVTVSWNSGALTSGVHTFPAVLQSSGLYSLSSVVTVPSSSLGTQTYICNVNHKPSNTKVDKKVEPKSCDKTHTCPPCPAPEKKGGPSVFLFPPKPKDTLMISRTPEVTCVVVDVSHEDPEVKFNWYVDGVEVHNAKTKPREEQYNSTYRVVSVLTVLHQDWLNGKEYKCKVSNKALPAPIEKTISKAKGQPREPQVYVLPPSREEMTKNQVSLLCLVKGFYPSDIAVEWESNGQPENRYMTWPPVLDSDGSFFLYSKLTVDKSRWQQGNVFSCSVMHEALHNHYTQKSLSLSPGK light: not shown |  | no binding | 0

— US20230167164A1 (IMMUNOWAKE, published 2023)
